# Assay results from the Immune Epitope Database (IEDB).
# Key:
# HLA-B*18:01 [1] = experiment: IEDB peptide-MHC binding, purified MHC/competitive/radioactivity; filed as Kd, often an IC50 or EC50 that approximates it; ≥ and ≤ were set here for values at or beyond the usual limits of such assays
# HLA-B*40:01 = experiment: as above
# HLA-B*40:02 = experiment: as above
# HLA-B*44:02 = experiment: as above
# HLA-B*44:03 = experiment: as above
# HLA-B*45:01 = experiment: as above
# HLA-B*39:01 [2] = experiment: IEDB peptide-MHC binding, purified MHC/direct/fluorescence; filed as Kd, often an IC50 or EC50 that approximates it; ≥ and ≤ were set here for values at or beyond the usual limits of such assays; conditions: source organism: Influenza A virus (A/kunke/1/71(H3N2))
# HLA-A*02:03 = experiment: as above; conditions: source organism: Zaire ebolavirus
# HLA-A*02:11 = experiment: as above; conditions: source organism: Zaire ebolavirus
# HLA-A*02:12 = experiment: as above; conditions: source organism: Zaire ebolavirus
# HLA-A*02:16 = experiment: as above; conditions: source organism: Zaire ebolavirus
# HLA-A*02:19 = experiment: as above; conditions: source organism: Zaire ebolavirus
# HLA-A*03:01 = experiment: as above; conditions: source organism: Zaire ebolavirus
# HLA-A*68:02 = experiment: as above; conditions: source organism: Zaire ebolavirus
# HLA-B*58:01 = experiment: as above; conditions: source organism: Ebola virus - Eckron (Zaire, 1976)
# HLA-A*02:01 = experiment: IEDB peptide-MHC binding, purified MHC/competitive/fluorescence; filed as Kd, often an IC50 or EC50 that approximates it; ≥ and ≤ were set here for values at or beyond the usual limits of such assays; conditions: source organism: Zaire ebolavirus
# HLA-A*26:01 = experiment: as above; conditions: source organism: Zaire ebolavirus
# HLA-A*69:01 = experiment: as above; conditions: source organism: Zaire ebolavirus
# HLA-B*15:01 = experiment: as above; conditions: source organism: Zaire ebolavirus
# HLA-B*15:17 = experiment: as above; conditions: source organism: Zaire ebolavirus
# HLA-B*18:01 [3] = experiment: as above; conditions: source organism: Zaire ebolavirus
# HLA-B*27:03 = experiment: as above; conditions: source organism: Zaire ebolavirus
# HLA-B*39:01 [4] = experiment: as above; conditions: source organism: Zaire ebolavirus
# HLA-B*46:01 = experiment: as above; conditions: source organism: Zaire ebolavirus
# HLA-B*51:01 = experiment: as above; conditions: source organism: Zaire ebolavirus
# [5] = source organism: SARS coronavirus Tor2
# [6] = source organism: Mammarenavirus machupoense
# [7] = source organism: Mammarenavirus lassaense
sequence,measurement,setting,value
REMLAHAEET,Kd,HLA-B*18:01 [1]; [5],1.03 µM
same,Kd,HLA-B*40:01; [5],0.922 µM
same,Kd,HLA-B*40:02; [5],0.068 µM
same,Kd,HLA-B*44:02; [5],0.895 µM
same,Kd,HLA-B*44:03; [5],0.228 µM
same,Kd,HLA-B*45:01; [5],0.151 µM
HHAVPNGTL,Kd,HLA-B*39:01 [2],0.0521 µM
PDVGVLFGL,Kd,HLA-B*18:01 [1]; [6],≥ 44.1 µM
same,Kd,HLA-B*40:01; [6],≥ 76.1 µM
same,Kd,HLA-B*40:02; [6],≥ 22.8 µM
same,Kd,HLA-B*44:02; [6],≥ 77.9 µM
same,Kd,HLA-B*44:03; [6],≥ 78.1 µM
same,Kd,HLA-B*45:01; [6],≥ 25.1 µM
WLQKIPLQW,Kd,HLA-A*02:03,≥ 20 µM
same,Kd,HLA-A*02:11,≥ 20 µM
same,Kd,HLA-A*02:12,≥ 20 µM
same,Kd,HLA-A*02:16,≥ 20 µM
same,Kd,HLA-A*02:19,≥ 20 µM
same,Kd,HLA-A*03:01,≥ 20 µM
same,Kd,HLA-A*68:02,≥ 20 µM
same,Kd,HLA-B*58:01,0.693 µM
same,Kd,HLA-A*02:01,≥ 20 µM
same,Kd,HLA-A*26:01,≥ 20 µM
same,Kd,HLA-A*69:01,≥ 20 µM
same,Kd,HLA-B*15:01,≥ 20 µM
same,Kd,HLA-B*15:17,≥ 20 µM
same,Kd,HLA-B*18:01 [3],≥ 20 µM
same,Kd,HLA-B*27:03,≥ 20 µM
same,Kd,HLA-B*39:01 [4],≥ 20 µM
same,Kd,HLA-B*46:01,≥ 20 µM
same,Kd,HLA-B*51:01,≥ 20 µM
TEHSWNADL,Kd,HLA-B*18:01 [1]; [5],8.39 µM
same,Kd,HLA-B*40:01; [5],0.034 µM
same,Kd,HLA-B*40:02; [5],0.132 µM
same,Kd,HLA-B*44:02; [5],0.125 µM
same,Kd,HLA-B*44:03; [5],0.137 µM
same,Kd,HLA-B*45:01; [5],0.331 µM
KEAYCQEFLL,Kd,HLA-B*18:01 [1]; [7],≥ 45.9 µM
same,Kd,HLA-B*40:01; [7],10.2 µM
same,Kd,HLA-B*40:02; [7],0.0337 µM
same,Kd,HLA-B*44:02; [7],1.26 µM
same,Kd,HLA-B*44:03; [7],5.01 µM
same,Kd,HLA-B*45:01; [7],6.68 µM
TEAFEKMVSL,Kd,HLA-B*18:01 [1]; [5],1.55 µM
same,Kd,HLA-B*40:01; [5],0.00352 µM
same,Kd,HLA-B*40:02; [5],0.0347 µM
same,Kd,HLA-B*44:02; [5],1.92 µM
same,Kd,HLA-B*44:03; [5],5.74 µM
same,Kd,HLA-B*45:01; [5],4.46 µM
VEYYPLLFIT,Kd,HLA-B*18:01 [1]; [5],8.28 µM
same,Kd,HLA-B*40:01; [5],5.12 µM
same,Kd,HLA-B*40:02; [5],0.0126 µM
same,Kd,HLA-B*44:02; [5],≥ 62 µM
same,Kd,HLA-B*44:03; [5],8.31 µM
same,Kd,HLA-B*45:01; [5],0.568 µM
